Legend:
[1] = biological target: rpos_ecoli rpoS (UniProt P13445)
[2] = biological target: rpod_ecoli rpoD (UniProt P00579)
[3] = biological target: T1, ltact_bpt4 33 (UniProt P13338)
T1 sequence: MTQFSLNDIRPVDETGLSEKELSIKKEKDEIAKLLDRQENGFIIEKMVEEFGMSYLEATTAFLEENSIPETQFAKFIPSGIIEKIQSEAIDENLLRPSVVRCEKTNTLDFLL

Chain of rpod_ecoli rpoD (P00579 whole entry): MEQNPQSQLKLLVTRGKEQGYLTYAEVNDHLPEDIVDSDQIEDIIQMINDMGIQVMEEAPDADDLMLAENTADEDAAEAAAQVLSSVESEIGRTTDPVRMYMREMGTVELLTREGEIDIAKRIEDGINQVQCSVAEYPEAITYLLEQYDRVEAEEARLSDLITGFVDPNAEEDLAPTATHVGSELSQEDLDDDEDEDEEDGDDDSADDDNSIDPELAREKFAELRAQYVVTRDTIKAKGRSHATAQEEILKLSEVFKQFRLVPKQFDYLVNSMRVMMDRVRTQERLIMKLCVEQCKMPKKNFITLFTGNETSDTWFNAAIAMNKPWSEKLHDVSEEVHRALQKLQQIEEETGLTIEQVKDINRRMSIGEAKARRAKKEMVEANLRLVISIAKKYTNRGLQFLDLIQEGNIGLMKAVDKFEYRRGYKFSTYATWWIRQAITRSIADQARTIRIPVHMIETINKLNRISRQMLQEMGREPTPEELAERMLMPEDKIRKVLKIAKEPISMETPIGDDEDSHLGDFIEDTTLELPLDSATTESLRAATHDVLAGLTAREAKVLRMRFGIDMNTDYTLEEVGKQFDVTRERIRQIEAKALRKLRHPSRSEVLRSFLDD
Chain of rpos_ecoli rpoS (P13445 whole entry): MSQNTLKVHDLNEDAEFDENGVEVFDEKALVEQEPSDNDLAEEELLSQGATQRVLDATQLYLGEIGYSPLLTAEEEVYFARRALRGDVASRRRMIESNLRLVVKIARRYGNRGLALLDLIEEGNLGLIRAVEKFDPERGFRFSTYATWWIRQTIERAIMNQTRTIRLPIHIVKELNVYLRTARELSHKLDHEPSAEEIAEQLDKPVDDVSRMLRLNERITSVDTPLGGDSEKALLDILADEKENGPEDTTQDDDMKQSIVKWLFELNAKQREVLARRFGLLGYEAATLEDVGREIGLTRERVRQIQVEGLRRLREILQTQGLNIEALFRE

Substance | effect of a mutation on the interaction [1] | effect of a mutation on the interaction [2] | effect of a mutation on the interaction [3]
DNA-directed RNA polymerase subunit beta (Escherichia coli (strain K12)) (from UniProt P0A8V2) E898A | decreasing interaction strength | disrupting interaction strength | disrupting interaction strength
DNA-directed RNA polymerase subunit beta (Escherichia coli (strain K12)) (from UniProt P0A8V2) E899A |  | decreasing interaction strength | disrupting interaction strength
DNA-directed RNA polymerase subunit beta (Escherichia coli (strain K12)) (from UniProt P0A8V2) F906A | decreasing interaction strength | disrupting interaction strength | disrupting interaction strength
DNA-directed RNA polymerase subunit beta (Escherichia coli (strain K12)) (from UniProt P0A8V2) I905A | decreasing interaction strength | disrupting interaction strength | disrupting interaction strength
DNA-directed RNA polymerase subunit beta (Escherichia coli (strain K12)) (from UniProt P0A8V2) K900A |  | disrupting interaction strength | disrupting interaction strength
DNA-directed RNA polymerase subunit beta (Escherichia coli (strain K12)) (from UniProt P0A8V2) K900E |  |  | disrupting interaction strength
DNA-directed RNA polymerase subunit beta (Escherichia coli (strain K12)) (from UniProt P0A8V2) L901A | disrupting interaction strength | disrupting interaction strength | disrupting interaction strength
DNA-directed RNA polymerase subunit beta (Escherichia coli (strain K12)) (from UniProt P0A8V2) L902A | decreasing interaction strength | disrupting interaction strength | disrupting interaction strength
DNA-directed RNA polymerase subunit beta (Escherichia coli (strain K12)) (from UniProt P0A8V2) R903A | decreasing interaction strength | decreasing interaction strength | disrupting interaction strength
